Selection pattern Distribution (%), EV Fraction and Wnt7a expression per ug of total protein, EV Fraction (tangential flow filtration) (per ug of total protein) data for one molecule are collected here from US20240238441A1.

Experiment [1] deals with Coatomer complex of HEK293T cells (Homo sapiens (Human)) (UniProt P53621).
For experiment [2] the target is unchanged. This is another data set of the same source.

B1: Wnt7a-HA (ligand)
chain: LGASIICNKIPGLAPRQRAICQSRPDAIIVIGEGSQMGLDECQFQFRNGRWNCSALGERTVFGKELKVGSREAAFTYAIIAAGVAHAITAACTQGNLSDCGCDKEKQGQYHRDEGWKWGGCSADIRYGIGFAKVFVDAREIKQNARTLMNLHNNEAGRKILEENMKLECKCHGVSGSCTTKTCWTTLPQFRELGYVLKDKYNEAVHVEPVRASRNKRPTFLKIKKPLSYRKPMDTDLVYIEKSPNYCEEDPVTGSVGTQGRACNKTAPQASGCDLMCCGRGYNTHQYARVWQCNCKFHWCCYVKCNTCSERTEMYTCKYPYDVPDYA
In experiment [1], B1 displayed a Selection pattern Distribution (%), EV Fraction of 83.4%. Besides, the Wnt7a expression per ug of total protein, EV Fraction (tangential flow filtration) (per ug of total protein) in experiment [2] is 0.13.
